Results from patent US20220033501A1 (SHANGHAI PHARMAEXPLORER, published 2022).

T1: monkey TIM-3 on CHOK1 stable cell line (CHOK1-cTIM-3) (monkey)
T1 chain: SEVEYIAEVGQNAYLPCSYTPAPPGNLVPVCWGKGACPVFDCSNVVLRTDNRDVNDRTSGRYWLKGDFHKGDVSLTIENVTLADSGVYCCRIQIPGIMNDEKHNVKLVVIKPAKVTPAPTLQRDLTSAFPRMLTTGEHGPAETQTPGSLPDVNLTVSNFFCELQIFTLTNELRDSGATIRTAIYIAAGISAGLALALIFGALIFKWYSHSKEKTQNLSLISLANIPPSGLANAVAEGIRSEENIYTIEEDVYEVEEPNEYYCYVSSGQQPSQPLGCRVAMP

T2: murine TIM-3 protein with hFc tag (mTIM-3-hFc protein) (mouse; human, UniProt Q8VIM0 29-191)
T2 construct: Made in HEK293 cells; also called mouse TIM-3 extracellular domain protein; not shown: human IgG Fc fragment (hFc) of the pCpC vector
T2 chain: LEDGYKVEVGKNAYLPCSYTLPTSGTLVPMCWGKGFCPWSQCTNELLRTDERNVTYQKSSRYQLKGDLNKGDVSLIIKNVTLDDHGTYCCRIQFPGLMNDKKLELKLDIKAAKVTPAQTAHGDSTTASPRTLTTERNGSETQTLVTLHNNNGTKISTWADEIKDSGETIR

T3: TIM-3 protein on human peripheral blood mononuclear lymphocytes (PBMC) (human, UniProt Q8TDQ0 22-301)
T3 sequence: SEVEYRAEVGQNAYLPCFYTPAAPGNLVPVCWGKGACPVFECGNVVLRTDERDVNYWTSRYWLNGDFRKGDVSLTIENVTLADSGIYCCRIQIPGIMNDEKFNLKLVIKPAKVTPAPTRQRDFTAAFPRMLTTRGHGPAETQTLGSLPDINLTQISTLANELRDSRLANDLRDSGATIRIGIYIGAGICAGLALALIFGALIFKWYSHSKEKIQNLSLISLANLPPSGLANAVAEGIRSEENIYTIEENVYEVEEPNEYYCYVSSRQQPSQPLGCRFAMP


Key:
[1] = target: T1, monkey TIM-3 on CHOK1 stable cell line …; test: FACS, CHOK1-cTIM-3 cells, 0 nM antibody
Description: (§1) The pIRES plasmid containing the full-length nucleotide sequence encoding human TIM-3 as described in Example 1 was transfected into CHOK1 cell line to obtain a CHOK1 stable cell line containing human TIM-3 (herein referred to as CHOK1-hTIM-3 stable cell line). The pIRES plasmid containing the full-length gene of monkey TIM-3 was transfected into CHOK1 cell line to construct a CHOK1 stable cell line containing monkey TIM-3 (herein referred to as CHOK1-cTIM-3 stable cell line). The CHOK1-hTIM-3 stable cell line and CHOK1-cTIM-3 stable cell line were expanded to a confluence of 90% in a T-75 cell culture flask. The medium was aspirated, and the cells were washed with HBSS (Hanks' Balanced Salt Solution) 1-2 times, and then treated with an enzyme-free cell dissociation solution (Versene solution: Life technology) and the cells were collected. The cells were washed with HBSS buffer for 1-2 times. After counted, the cells were diluted with HBSS to 1-2×10⁶ cells per ml, added with 1% goat serum blocking solution, incubated on ice for 20-30 minutes, and then washed with HBSS by centrifugation 2 times. The collected cells were suspended in the FACS buffer (HBSS+1% BSA) to 2×10⁶ cells/ml, added as 100 microliters per well to a 96-well FACS reaction plate, added with 100 microliters per well of the antibody sample to be tested, incubated on ice for 1-2 hours. The plate was washed twice with the FACS buffer by centrifugation, added with 100 microliters of fluorescent (Alexa 488)-labeled secondary antibodies per well, and incubated on ice for 0.5-1.0 hours. The plate was washed 2-3 times with FACS buffer by centrifugation, added with 100 μl fixative solution (4% Paraformaldehyde) per well to suspend the cells. 5-10 minutes later, it was washed 1-2 times with FACS buffer by centrifugation. The cells were suspended with 100 microliters of FACS buffer, FACS (FACSCalibur, BD) was used for detection and the results were analyzed. The results are shown in FIGS. 7 and 8, Tables 7 and 8, wherein the IgG control is rat IgG, and the data in the table are the average fluorescence intensity values of the cell populations measured by MFI.

[2] = target: T1, monkey TIM-3 on CHOK1 stable cell line …; test: FACS, CHOK1-cTIM-3 cells, 8 nM antibody
Description: as §1

[3] = target: T1, monkey TIM-3 on CHOK1 stable cell line …; test: FACS, CHOK1-cTIM-3 cells, 40 nM antibody
Description: as §1

[4] = target: T1, monkey TIM-3 on CHOK1 stable cell line …; test: FACS, CHOK1-cTIM-3 cells, 1.6 nM antibody
Description: as §1

[5] = target: T1, monkey TIM-3 on CHOK1 stable cell line …; test: FACS, CHOK1-cTIM-3 cells, 200 nM antibody
Description: as §1

[6] = target: T1, monkey TIM-3 on CHOK1 stable cell line …; test: FACS, CHOK1-cTIM-3 cells, 0.32 nM antibody
Description: as §1

[7] = target: T1, monkey TIM-3 on CHOK1 stable cell line …; test: FACS, CHOK1-cTIM-3 cells, 0.013 nM antibody
Description: as §1

[8] = target: T1, monkey TIM-3 on CHOK1 stable cell line …; test: FACS, CHOK1-cTIM-3 cells, 0.064 nM antibody
Description: as §1

[9] = target: T2, murine TIM-3 protein with hFc tag …; test: ELISA, coated mTIM-3-hFc
[10] = target: T3, TIM-3 protein on human peripheral blood …; test: cell-based or functional assay

Mean fluorescence intensity [1]	Mean fluorescence intensity [2]	Mean fluorescence intensity [3]	Mean fluorescence intensity [4]	Mean fluorescence intensity [5]	Mean fluorescence intensity [6]	Mean fluorescence intensity [7]	Mean fluorescence intensity [8]	binding result [9]	IFN production; antibody 0.001 µg/ml (4th head as printed), N = 1 [10] [pg/mL]	IFN production; antibody 0.001 µg/ml (4th head as printed), N = 2 [10] [pg/mL]	IFN production; antibody 0.001 µg/ml (5th head as printed), N = 1 [10] [pg/mL]	IFN production; antibody 0.001 µg/ml (5th head as printed), N = 2 [10] [pg/mL]	IFN production; antibody 0.1 µg/ml, N = 1 [10] [pg/mL]	IFN production; antibody 0.1 µg/ml, N = 2 [10] [pg/mL]	IFN production; antibody 1 µg/ml, N = 1 [10] [pg/mL]	IFN production; antibody 1 µg/ml, N = 2 [10] [pg/mL]	IFN production; antibody 10 µg/ml, N = 1 [10] [pg/mL]	IFN production; antibody 10 µg/ml, N = 2 [10] [pg/mL]	Binder
3.2	92.2	186	35.8	203	14.4	4.3	6.9	–	–	–	–	–	–	–	–	–	–	–	18D2H2 TIM-3 antibody purified from hybridoma supernatant (chimeric antibody of Example 2) (antibody, V domains shown) VH: EVQLVESGGDLVQPGGSLRLSCAASGFTFSTYWMTWVRQAPGRGLEWVANIKQDGSAKYYVDSVKGRFTLSRDDAKNSLYLQMNSLRAEDTAVYYCARGSNWFDYWGQGTLVTVSS VL: ETVMTQSPATLSVSPGERATLSCRANQNVYSNLAWYQQKPGQAPRLLIYDASTRATGFPARFSGSGSGTEFTLTISSLQSEDFAVYYCQQYNNWPLTFGGGTKVEIK
3.2	704	699	460	675	185	22.2	59.6	–	–	–	–	–	–	–	–	–	–	–	57F4E5 TIM-3 antibody purified from hybridoma supernatant (chimeric antibody of Example 2) (antibody, V domains shown) VH: EVQLVESGGGLVQPGGSLRLSCAASGFTFSSYWMSWVRQAPGKGLEWVANIKQDGSEKYYVDSVKGRFTISRDSAKNSLYLQMNSLRAEDTAMYFCARDSNFFDYWGQGTLVTVSS VL: ETVMTQSPATLSVSPGERATLSCRASQSVSSNLAWYQRKPGQAPRLLIYFSSTRATGIPARFSGSGSGTEFTLTISSLQSEDFAVYYCQQYNNWPLTFGGGTKVEIK
–	–	–	–	–	–	–	–	no binding (tested: 66.667 nM)	–	–	–	–	–	–	–	–	–	–	18D2H2 fully human TIM-3 antibody (human IgG4, kappa) (antibody, V domains shown) VH: EVQLVESGGDLVQPGGSLRLSCAASGFTFSTYWMTWVRQAPGRGLEWVANIKQDGSAKYYVDSVKGRFTLSRDDAKNSLYLQMNSLRAEDTAVYYCARGSNWFDYWGQGTLVTVSS VL: ETVMTQSPATLSVSPGERATLSCRANQNVYSNLAWYQQKPGQAPRLLIYDASTRATGFPARFSGSGSGTEFTLTISSLQSEDFAVYYCQQYNNWPLTFGGGTKVEIK
–	–	–	–	–	–	–	–	no binding (tested: 66.667 nM)	–	–	–	–	–	–	–	–	–	–	134H3G6 fully human TIM-3 antibody (human IgG4, kappa) (antibody, V domains shown) VH: EVQLVESGGGLVQPGGSLRLSCAASGFTFSNSWMTWVRQAPGKGLEWVANIKQAGTEKYYVDSVKGRFTISRDNAKNSLYLQMNSLRAEDTAVYYCNSGSNYFDYWGQGTLVTVSS VL: EIVMTQSPATLSVSPGERATLSCRARQNFYSNLAWYQQKPGQAPRLLIYGASTRATGIPARFSGSGSGTEFTLTISSLQSEDFAVYYCQQYNNWPLTFGGGTKVEIK
3.2	90	163	29.1	147	11.3	4.1	5.9	–	672	719	666	756	758	873	1010	1160	848	1010	7A4F10 TIM-3 antibody purified from hybridoma supernatant (chimeric antibody of Example 2) (antibody, V domains shown) VH: EVQLLESGGGLVQPGGSLRLSCAASGFTFRTHLISWVRQAPGKGLEWVAAITGSGGSTYYADSVKGRFIISRDNSKNTLFLQMNSLRAEDTAVYYCAKDGGSGSYDDFWGQGTLVTVSS VL: ETVLTQSPVTLSLSPGERATLSCRASQSVGSYLAWYQQKPGQAPRLLIYDASNRATGIPARFSGSGSGTDFTLTISSLEPEDFAVYYCQQRSNWPPTFGQGTKVEIK
–	–	–	–	–	–	–	–	no binding (tested: 66.667 nM)	–	–	–	–	–	–	–	–	–	–	7A4F10 fully human TIM-3 antibody (human IgG4, kappa) (antibody, V domains shown) VH: EVQLLESGGGLVQPGGSLRLSCAASGFTFRTHLISWVRQAPGKGLEWVAAITGSGGSTYYADSVKGRFIISRDNSKNTLFLQMNSLRAEDTAVYYCAKDGGSGSYDDFWGQGTLVTVSS VL: ETVLTQSPVTLSLSPGERATLSCRASQSVGSYLAWYQQKPGQAPRLLIYDASNRATGIPARFSGSGSGTDFTLTISSLEPEDFAVYYCQQRSNWPPTFGQGTKVEIK
3.2	733	976	330	961	108	13.6	34.7	–	782	753	791	741	840	901	1020	1070	943	1070	215A8F2 TIM-3 antibody purified from hybridoma supernatant (chimeric antibody of Example 2) (antibody, V domains shown) VH: QVQLQQWGAGLLKPSETLSLTCTVYGGSFSGYYWNWIRQPPGKGLEWLGEINHSGSTNYNPSLKRRVTISVDTSKNQFSLKLSSVTAADTAVYYCARVYYYGPFDFWGQGTLVTVSS VL: not shown
–	–	–	–	–	–	–	–	no binding (tested: 66.667 nM)	–	–	–	–	–	–	–	–	–	–	215A8F2 fully human TIM-3 antibody (human IgG4, kappa) (antibody, V domains shown) VH: QVQLQQWGAGLLKPSETLSLTCTVYGGSFSGYYWNWIRQPPGKGLEWLGEINHSGSTNYNPSLKRRVTISVDTSKNQFSLKLSSVTAADTAVYYCARVYYYGPFDFWGQGTLVTVSS VL: not shown
